Source: US20080300210A1

Target: cell receptor(s) in the thrips midgut (Frankliniella occidentalis)
Assay: cell-based or functional assay

Substance: GN-S, soluble version of the Tomato spotted wilt virus (TSWV) GN envelope/membrane glycoprotein (from UniProt P36291 35-309)
- percent of transmitting adults (thrips given an acquisition access period on GN-S mixed with purified TSWV): 8 fold
- proportion of thrips infected with virus (real time RT-PCR, insects pre-exposed to GN-S then fed on TSWV-infected plant material): 3 fold
